Measured values: the DeepSol protein solubility set

Assay: soluble on expression in E. coli; label from the status in PepcDB or PDB records

Row | Sequence | soluble on expression in E. coli
1 | HHHHHHENLYFQGSMDALQLANSAFAVDLFKQLSEKEPLGNVLFSPIALSTSLSLAQVGAKGDTANEIGQVLHFENVKDVPFGFQTVTSDVNKLSSFYSLKLIKRLYVDKSLNLSTEFISSTKRPYAKELETVDFKDKLEETKGQINNSIKDLTDGHFENILADNSVNDQTKILVVNAAYFVGKWMKKFSESETKESPFRVNKTDTKPVQMMNMEATFSMGNIDSINSKIIELPFQNKHLSMFILLPKDVEDESTGLEKIEKQLNSESLSQWTNPSTMANAKVKLSIPKFKVEKMIDPKASLENLGLKHIFSEDTSDFSGMSETKGVALSNVIHKVSLEITEDGGDSIEVPGARILQHKDELNADHPFIYIIRHNKTRNIIFFGKFSSP | soluble
2 | HHHHHHESDDDDKLAFGAIQLDGDGNILQYNAAEGDITGRDPKQVIGKNFFKDVAPCTDSPEFYGKFKEGVASGNLNTMFEYTFDYQMTPTKVKVHMKKALSGDSYWVFVKRV | soluble
3 | HHHHHHSSGLVPRGSHMMNPFHDLEPGPNVPEVVYALIEIPKGSRNKYELDKETGLLKLDRVLYTPFHYPVDYGIIPRTWYEDGDPFDIMVIMREPTYPLTIIEARPIGLFKMIDSGDKDYKVLAVPVEDPYFKDWKDISDVPKAFLDEIAHFFKRYKELEGKEIIVEGWEGAEAAKREILRAIEMYKEKFGKKE | soluble
4 | HLDAIQNFGAMDILCTDKTGTLTQDKIVLENHTDVSGKVCERVLHAAWLNSHYQTGLKNLLDTAVLEGVELDAARGLAERWQKVDEIPFDFERRRMSVVVKEDDAAHQLICKGALQEILNVSTQVRYNGDIVPLDDTMLRRIRRVTDTLNRQGLRVVAVATKYLPAREGDYQRADESDLILEGYIAFLDP | not soluble
5 | HLQGLSAAVLDLTGLAQKGGTVVSHIRLAPSGTANGPVRLDWQQADAAILCDPVAAVAPDSLGALRRDHTRTTVNTYVAPVSDFTRNPDAPLRADALLAKIRHAAGEHVAALDAHAAAQALFGDSILSNMFMLGHAWQRGDVPLALAALARAIELNGVAVAANRAAFDAGRLAAHE | not soluble
6 | HMIFAKGHGTQNDFVLLPDVDAELVLTAARVAALCDRRKGLGADGVLRVTTAGAAQAVGVLDSLPEGVRVTDWYMDYRNADGSAAQMCGNGVRVFAHYLRASGLEVRDEFVVGSLAGPRPVTCHHVEAAYADVSVDMGKANRLGAGEAVVGGRRFHGLAVDVGNPHLACVDSQLTVDGLAALDVGAPVSFDGAQFPDGVNVEVLTAPVDGAVWMRVHERGVGETRSCGTGTVAAAVAALAAVGSPTGTLTVHVPGGEVVVTVTDATSFLRGPSVLVARGDLADDWWNAMG | soluble
7 | IHTMWKGTISFGLVNIPIKLHAATENKDVRLRQLHKECKTPINYLKVCPNCDAEVEPNDIVKAYEYAKNKFVELDEEELASLKKEQEDKAVEIIDFVKLQEIDPIYFDKSYYMSPGDGGGKAYTLLREALAESEKIGVAKIIIRAKEHLAVIRVYKNTLLMETIHFPDEVRAVDQVPNVPE | not soluble
8 | IKNFSYGVKFVLSDAQQKILKYNNPDKSLSNPYYEGQKLGEIWGYKTIGIAQSDEEMNQHLANAKQPMGQKWAAGDIMYADLDNSGSVDQGNYKVGDSGDWQIIGNNTPRFNYGITIDAAWKGLDFRAFVQGIGKRDYWLNGPYFWGFSGGGEWASAGFKEHWDFWRPEGDPLGANTNSYFARVIRGTSKNQQRQTRYLQDASYWRLKNIQIGYTLPKVWTKKAGMESVRVYVSGDNLLTVSDITGVFDPENLGTQWTDPGKVYPLQKVIAIGLTVNF | not soluble
9 | INKVPVTVFLWRPEKYWPADFVSENVKNFGYTVEEFTSGKVLYGNIVHPDDFERVERELSRRIEEDYVDFSQEYRILTKSGEARWVEERTFIEADENGVVKYLKGIILDIT | not soluble
10 | IRSIWENNGFGLMSSKTMTDFDYWISDFEKIGASQKEAEQLIVKAIEIAIDANARNYNYINAILKDWEQRGFKSVEEREA | soluble
11 | ITKAINYMAKRRIGALLTIERDTGMGDYIETGIPLNAKVSSELLINIFIPNTPLHDGAVIMKNNEIAAAACYLPLSESPFISKELGTRHRAAVGISEVTDSLTIIVSEETGGVSVAKNGD | not soluble
12 | KEFFLAKHAEQKKRHHKYNDTEYNLEPNVKGSPGGLRDIQTILWVARRQYGTLNLHALAGEGFLLGSENALLASSQEFLWKVRYALHMLAGRSEDRLLFDYQVRIAGLLGYEDNDAKLAIERFMQKYYRVVMSIAELSDLIIQHFEEVILSDDDGTPQPINSRFQLHDGYIEATNPNVFRRTPFAMLEIFVLMAQHPEIKGVRADTIRLL | not soluble
13 | KFGELREISGNQYVNEVTNAEKDLWVVIHLYRSSVPMCLVVNQHLSVLARKFPETKFVKAIVNSCIEHYHDNCLPTIFVYKNGQIEGKFIGIIECGGINLKLEELEWKLSEVGAIQSDLEEN | soluble
14 | KGHAWTHSAGEPLRVVAIQGNIAQELKWDPNQVRAQLDLYRDLSLPQQDVDLIVWPETAVPILQDMASGYLGAMGQVADEKNAALITGVPVRERLADGKSRYFNGITVVGEGAGTYLKQKLVPFGEYVPLQDLLRGLIAFFDLPMSDFARGPADQPLLKAKGYQIAPYICYEVVYPEFAAALAAQSQVLLTVSNDTWFGTSIGPLQHLQMAQMRALESGRWMIRATNNGVTGLIDPYGRIVRQIPQFQQGILRGEVIPMQGLTPYLQYR | not soluble
15 | KGTLYLVATPIGNLEDVTFRAIRTLKEADQIAAEDTRQTKKLLNHFDIATKLVSYHEHNKETMGKRLIDDLIEGRTIALVSDAGMPAISDPGYELVVSAIKEGIAVIPIPGA | not soluble
16 | KHHHHHHIKPGALCVIDTPEGKGTGFFSGNDIVTAAHVVGNNTFVNVCYEGLMYEAKVRYMPEKDIAFITCPGDLHPTARLKLSKNPDYSCVTVMAYVNEDLVVSTAAAMVYGNTLSYAVRTQDGMSGAPVCDKYCRVLAVHQTNTGYTGGAVIIDPTDFHPV | soluble
17 | KHLPQILCEAMTREAETMAMPDPKLPEEINRTFMQTYADVEQLVPPAKVDRHGSVCIYLPSPASSEEAEANLSWEEQILQDLPRFIIGLQKRGYAPSDIAILVRKTYQAREIARAMLSYQPEPDEEDYPLIPMSDESLSLSGAASIRFLSNLLKFISRPQSDALRQIAYLSYEELRKEKGLAPTEEGNFSAAELAEFANLRRRSLYELAEGLVSFFHSYLPEREMPYLIAWLDLINDFGHERSADLHSFLQWWDETGHAKSRISSAPNSQAVTLMTIHKAKGLGFRVVLIPFLDWNLDDEAAHRHILWCKIDPARSPFNILPVVPIRYKKEMAQTMFATDYFRERADILLDNLNLLYVATTRAKDEMHLWLHPSQKPESLSTVGDLIHLALASLDENKTESDMYCWGSPVISARQKTTDHPSSGLPFTLPKGSLSAVADRLAIRPEGSEFYRRHKPLYHGHVMHRILADIVLAKDIEPALERYVSGGIVTRDEAIELVDRLSVVTSDSRLSRWFDGSGRVLNEQDILLPEGEQRRPDRIILYDDHTDIVDYKFGAVRKVHHAQMENYIRLLVSMGYPSVRGYLWYLPNNEIVGVRSVRGITRSKGEERKEGKGERGIERKAK | not soluble
18 | KLGAPVKKAILEALSERDQTADICKDSKGNIEPDTQLRDTELVAFPDHLTLPLPVNYDKEPDLSKLLPLVKAHCEAYLKAEVLPHVADAWIDYSKTKVGYEIPINRHFYIYEPPRPLEEIKAEIVQLEQEIMQMLGGLSA | not soluble
19 | KNKKVILFAPTFRGNGHRTAHYPFFKINFARLASYCEEHQATVLFKMHPFVRNKLNIPAIYSKYFLDISNYREVNDVLFITDILISDYSSLIYEFSVFKKPMLFYAFDLEDYIYTRDFYEPYETFVPGKIVKIFDELILALENNDFELEKVKPFLNKNFKYKDGKSSERLVKDLFNKFFQ | not soluble
20 | KPYTIDKANSSVWFEVKHFKFNETRGVFDSFDGKIDADPNTKALNVFEGKIDIKSINTRNKKRDDHLKTAEFFDVVKYPKGSFKMTKYEDGKIHGDLTLHGVTKPVVLEAKIQAPLQNPMNKKEFMVLQAEGKINRKDFGIGKTFSDAVVGDEVKIELKLEAYA | soluble
21 | KRLQKKIDNGELDSFPEVKEVDVECCGQHEVCERDSLLAAVSKQIEYYDDEELDTFIGRAPEDYTPEEADKFRDVFYTMQDTDVAGWVRSLQLRGISLPDEIKDEVFLVVGERRIH | not soluble
22 | KRLQQKIEKGELDRMPEVKEADIECCGQHEVCEKDSLLAAVSKKIEYYDDEELDQFIGKEANAYTDEETNQFRDVLYTMQDIDVAGWVRSLQLRGIELPDDLKDEVFLIIGERRNG | soluble
23 | KTFEPTNPFFRVVLRPSYLYRGCIMYLPSGFAEKYLSGISGFIKVQLAEKQWPVRCLYKAGRAKFSQGWYEFTLENNLGEGDVCVFELLRTRDFVLKVTAFRVNEYV | not soluble
24 | KTNRRSETNIIRFNNSIFSAAVDYLNEMYNKQLGSICEPLINAYADVEQESPRNKQQGYVKVEFLEPDEEHDYTEQTLISLGMEVEHLLQSGVKLNDIAILVRKNKSIPRIADYFDKQLNYKIVSDEAFRLDASLAICMMLDALRYLSDPENRIVKAQLATNYQLQILHSEYDLNSLLLHKAEELFPPAFLERMAELRLMPLYELLEELFSLFELHRIEQQDAYLFAFFDAVTDYLQSHSSDPDSFIRYWNETLSGKTIPSGEVEGIRIFSIHKSKGLEFHTVLLPFCDWKLENETNNQLVWCVPQEAPFNELDIVPVNYSSAMAESVYRTDYLHERLQLWVDNLNLLYVAFTRAGKNLIIWSRKGQRNTMA | not soluble
25 | LAWKRMEEHDWTCDCIRCREAGHSDDVAENIELDVMTYEACGGMEHFISFEDFENDVLVGFCRLRFPNDPVRRELQDAAIVRELHVYGNAVGVGQEGDDEDHQHKGYGKKLLEKAEVLARDAGFPKLAVISGIGVRQYYREKLGYKQDGPYVSKRL | not soluble
26 | LESKNMTWYRMLLVTPVRQGEKVRKFFLHAFHSFEYRALSSGTEEEGLVLTVNDSERTEEIFSCCEKMKAFCKNFLGETPQILCSRAYQQGDDSSLLYEQTKAYAKGRSAEQILIVPQNAEEGDGTDTLLKRVQTYIRNHYTERLTLADIAEAVHVSSSYLSRFYKLKAGENLFDTINSLRVEKAKELLLRGDKKIYEIAALTGFEDTAYFSKVFKKYAGCPPKEYEQSGGRNL | not soluble
27 | LGKLDVLKVSAPWLASLRDELDQTCFLAVWGNKGPTVVYVEPSMGAVTLVTQIGSVLPLLSSSTGLVFDSFLAQGETALLREQETPRLSADQLHEVERHIKQIRATGVHQIQGMLMPGINAASSPLFAMGNKLVGVITVVGPGSVLNDKAQGQAARRLLETATAISERMGGSQLRS | soluble
28 | LGVDRAKQIQALAKGTFGINIALDAFTLELRLLVEQIEFIEEQISVIEEAIDQVMEEMRPSKDTAYRHVLETIPGIGPVLAASIIGEIGDINRFPNAKALVAYAGLDATVRSSGQFEGTRNRISKRGSPVLRHSIWLAAVSARRFNPEMKEFFEKKRSEGKHTLVATGAVARRMVHLIYSLWKDNRPFDPNYQWSPTNSR | soluble
29 | LHRIVDKMHDTSTGIRPSPNMEQGSTYKKTFLGSSLVDWLISSNFAASRLEAVTLASMLMEENFLRPVGVRSMGAIRSGDLAEQFLDDSTALYTFAESYKKKVSSKE | soluble
30 | LLQHAYNPINWYSWNDEAFKKAKEEDKPIFLSVGYSTCHWCHVMEKESFEDEEVAEIMNRNFVAIKVDKEERPDVDSVYMTVCQAMTGSGGWPMTIIMTPDKKPFFAGTYFPKYSRYNRPGVIDLLENVSEKWNTSRDILIKSGDEIIEAL | not soluble
